Experimental data reported in the supplement of paper PMC9170038.

tested on: K4 kissing-loop RNA reporter; test: apparent KD of K4 kissing-loop reporter; higher = weaker reporter binding; conditions: Eterna round: R107; input ligand: FMN 200 uM
Protocol: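 RNA-MaP round R107: designed RNA switches with theophylline, tryptophan, arginine or FMN aptamers are transcribed on-chip within common flanks. They are titrated with a labelled K4 kissing-loop RNA reporter in RNA-MaP buffer (100 mM Tris pH 7.5, 80 mM KCl, 4 mM MgCl2), without ligand or with the indicated ligand. Median apparent KD per design.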
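Note: bound reporter read as fluorescence of individual clusters on recovered sequencing chips by microscopy, with normalized cluster intensities fitted with a binding model.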

Going from “CAGCCUGGUCAGUGAUGUUGGCCGCAGGGAAAGGAUAUUGUGUUGGCAAGAAGGUUCGCUUGAUCGUUGGCCCAUGCAUGGGCCU [theeternabot_sameState_KL_FMN_A_44]” to “CUUAUGGACUAAGGAUAUGGGUAUACCGGAAGCGCCGUCACGGUAGUGAUGUUACACGCGACGGGACCAGAAGGUAGAUCGCUCC [theeternabot_exclusion_KL_FMN_B_33]”, the “apparent KD of K4 kissing-loop reporter” value falls from 186 nM to 73.9 nM (2.5-fold).

Compared with “UUGUUUGGUUGAGAGGUUGGGCGAGAUGAUACCAGUAGAGAAGAGUACCCUUGGCAGCAUAGGAGAGAUAUAGUGAUGUUGUAUA [SSTheophA.R]”, “GCGCGUCAUGUCAGCGGUGACACUGUCGAUACCAGUGCCGCAAGGCGCCCUUGGCAGCGACGUGCUGGAGUGAUGUUCCAGCGUU [#2 Exclusion - Theophylline A Attempt #29 (HarryS)]” is 3.1-fold lower in “apparent KD of K4 kissing-loop reporter” value: 487 nM for the first, 156 nM for the second.

“UCACAGUCCAAAGGAUAUUGAGUGCGCGUGCGAUUUAAGCUGAAGCCGUAGCUAGUGAUGUUAGCCCAAGAAGGUUGGUAGCCAG [theeternabot_exclusion_KL_FMN_B_16]” and “UCGAAGGAUGGAAGGAGCGCUCGUCAGUCCUGCGAGUGAUGUUCGUGGGUAAAUAUUCGCGAGCAGGUAGGUCGCCAUCUUGAGA [Laatla]” are within 1.5-fold of each other in “apparent KD of K4 kissing-loop reporter” value: 136 nM for the first, 135 nM for the second.

“GGUAGCAUGGCGGCCGCCACUCAUGUAGAUACCUACAUAGUAAGCAGUGAUGUUGCUUUGUGGUUGAGGACCGGGCCAUGCUACC” and “AAUCAAUACAGAAGGAGCGUGACAGUUGCGAGUGUAAUUUUAGCUAGUGAUGUUAGCAUUUCACAGGUAGGUCGCUGUACAUUUA [#05 K4 Arginine B Same State]” are within 1.5-fold of each other in “apparent KD of K4 kissing-loop reporter” value: 167 nM for the first, 115 nM for the second.

Compared with “GGAUAGGAUAGAGGAUAUGGUUUAGGCAAGAAUAACUUGUCAUGUAAAUCCAUGAGGAGUGAUGUUCCAGAAGGCUGUCCUAUCG [MatMod 8 - Jieux - Exclusion - FMN B]”, “AGCUGCCGAAUAGAUACCAGUGUCUUUAGUGAUGUUUCAGAGCUGGCACGAUCAGAAGGUCACCCUUGGCAGCUAGUGCCAGCGU [theeternabot_exclusion_KL_Theo_B_39]” is 1.7-fold lower in “apparent KD of K4 kissing-loop reporter” value: 576 nM for the first, 340 nM for the second.

First: UGAUACCAGACGGCCGCCACUAGACCAGUCAAAGACUGGAUGUGAUGUUUGAGGAGUGAUGUUCCUAGGACCGGGUCUGGUAUCU [TrypBX 4 #Palindromic #SwitchBubble #StaticStem]
Second: AAGGCGUCGAGUUUGGUGGCGCCAACAGAUACCAGAUUACCUCCAAUCCCUUGGCAGCUGGCUUGAGAGUGAUGUUUUCAAAAGU [theeternabot_sameState_KL_Theo_A_33]
The “apparent KD of K4 kissing-loop reporter” value of the first is 5.8-fold lower: 91.3 nM for the first, 532 nM for the second.

Going from “GGCAUCCAUGGACAUAGUGAUGUUAUGUACCGAGGACCGGUACGGCCGCCACUCGGCCAUGGAUGCCGCAAUCGGAAACGAUUGC” to “CCAUCGCUAUUCGAUACCAGCUACUUAGUGAUGUUAAGUUUUUACCCACUGUAGGUGGGAAGCCCUUGGCAGCGAAUAGUGAUGG [Theophylline B K4 27]”, the “apparent KD of K4 kissing-loop reporter” value falls from 868 nM to 240 nM (3.6-fold).

“UGAACCGCCCAGUGAUGUUGGGCCAUAGAUACCAGCCUCUCCGACGGCCCUUGGCAGCUAGGGCCCGGCAGGUAGGAGACUCUGC [Orarzasove]” and “UGUCAUUGGUCGGCCGCCACUAGGACCGGGAGUAACCUAGUGAUGUUAGUGUGCUCGGCCGCCACUAGGACCGGGACCGAUGACU [KL-SSTryp-B22 #DoubleAptamer]” are within 1.5-fold of each other in “apparent KD of K4 kissing-loop reporter” value: 199 nM for the first, 180 nM for the second.

First: AGAACUGUCUUGGAUACCAGUGAUGUUGGUAUCUAUGUGUGAGUGCAAAGCGUCCCACAUUGCCCUUGGCAGCUAAGACUGUUCA [Omei KL Theo B Exc A v2]
Second: GGAUAGGAUAGAGGAUAUGGUUUAUGCAGGAAUAACUUAUCGUGUAAAUCCAUAGGGAGUGAUGUUCCAGAAGGCUGUCCUAUCG [MatMod 13 - Jieux - Exclusion - FMN B]
The “apparent KD of K4 kissing-loop reporter” value of the first is 2.6-fold lower: 154 nM for the first, 408 nM for the second.

First: UGACUGGAUGGAAGGAGCGCUAAACUCCUAGUGAUGUUAGGGAAACGAGACAAAGUCUCGAGGCAGGUAGGUCGCCAUCUAGUCU [FiskerMod 15 - Jieux - Same State - Arginine B]
Second: UGUCAUUGGUCGGCCGCCACUCCAUAAAGAGUGAUGUUCUAAAAGACGGAUCGAAAGAUCUGUCGGAGGACCGGGACCGAUGACU [FiskerMod 4 - Jieux - Same State - Tryptophan B]
The “apparent KD of K4 kissing-loop reporter” value of the first is 6.5-fold lower: 183 nM for the first, 1190 nM for the second.

Going from “UGAUAGGACAGAAGGAGCGGAAGUGAUGUUUCCAAAAGGAAAGGUCGACAAAGUCGACCCUUCCAGGUAGGUCGCUGUCCUAUCU [ArgBX 8 #Palindromic #SwitchBubble #StaticStem]” to “AAGUGUGUGGCGGCCGCCACUAGGAUCCAGUGAUGUUGGAGAUAUCUCGUAAGAGAUAUCCGCCAUAGGACCGGGCCAUAUAGAA [Same State - Tryptophan B (Freestyle 16)]”, the “apparent KD of K4 kissing-loop reporter” value rises from 88.2 nM to 862 nM (9.8-fold).

“GGGAUAGGAUCAGUGAUGUUGGUCCCAGAUACCAGACAAAGUCACGUCCCUUGGCAGCUGAUGAUCGCUGACGACCGGCCUCCAA [theeternabot_sameState_KL_Theo_A_7]” and “UGACUGGACUGAAGGAGCGCGCGAGACAAAGUCUCGAACUGGUAGUGAUGUUAUCAAAUAACGCAGGUAGGUCGCAGUCUAGUCU [ArgBS 12 #SwitchBubble #StaticStem]” are within 1.5-fold of each other in “apparent KD of K4 kissing-loop reporter” value: 259 nM for the first, 251 nM for the second.

Going from “UGACUACAAAAGGAAUAAUCCUAGUGAUGUUAGGAUAUGCUGAUAAGCAGAAGGAACUGAGAUCGAAAGAUCUCAAAUGUAGUCU [FmnAX 25 Mat Inspired #SwitchBubble #StaticStem #K4Early]” to “AAACAUUGGUCGGAUACCAGUUAGACCGAUAGGUCAAAACUGGAGUGAUGUUCCUAAAAUAACCCUUGGCAGCCGACCGAUGAAA [MAT - Same State Theophlline B - Mod of Eli - D5]”, the “apparent KD of K4 kissing-loop reporter” value rises from 116 nM to 954 nM (8.2-fold).

Going from “CCAUUCAUUUACGAUACCAGUCUAAUAUAUUGAAUCAAAACCCUCGCCGAGUGAUGUUCGGACCCUUGGCAGCGUCUGCGAGAGG [ddrdkmullin]” to “GGAUAGGACGGAGGAUAUGGUAGUGAUGUUACCAAACUGGUUAAACAUGUCAGAAAACUGGCAUGACCAGAAGGCCGUCCUAUCG [FmnBX 27 G10+C76]”, the “apparent KD of K4 kissing-loop reporter” value falls from 596 nM to 108 nM (5.5-fold).

“CAUACGCAUGGAGGAUAUGAGAUUUCUCAUAUUAUUUAAUAUUCUCAGUGAUGUUGGGAUUUAAACUCAGAAGGCCAUGUGUAUG [Ex FMN B 7]” and “AAGGUCACCACUACAGUGAUGUUGUAGGAGCAGGAUAUGCAGAAAUGCAGAAGGGCUCGCUCCAGGUGACCGAAUGAAACAUUCA [Omei KL FMN A SS A v4]” are within 1.5-fold of each other in “apparent KD of K4 kissing-loop reporter” value: 259 nM for the first, 217 nM for the second.

same assay, conditions: Eterna round: R107; input ligand: arginine 13.2 mM

Compared with “CAGCCUGGUCAGUGAUGUUGGCCGCAGGGAAAGGAUAUUGUGUUGGCAAGAAGGUUCGCUUGAUCGUUGGCCCAUGCAUGGGCCU [theeternabot_sameState_KL_FMN_A_44]”, “CUUAUGGACUAAGGAUAUGGGUAUACCGGAAGCGCCGUCACGGUAGUGAUGUUACACGCGACGGGACCAGAAGGUAGAUCGCUCC [theeternabot_exclusion_KL_FMN_B_33]” is 1.9-fold lower in “apparent KD of K4 kissing-loop reporter” value: 180 nM for the first, 96.2 nM for the second.

Going from “UUGUUUGGUUGAGAGGUUGGGCGAGAUGAUACCAGUAGAGAAGAGUACCCUUGGCAGCAUAGGAGAGAUAUAGUGAUGUUGUAUA [SSTheophA.R]” to “GCGCGUCAUGUCAGCGGUGACACUGUCGAUACCAGUGCCGCAAGGCGCCCUUGGCAGCGACGUGCUGGAGUGAUGUUCCAGCGUU [#2 Exclusion - Theophylline A Attempt #29 (HarryS)]”, the “apparent KD of K4 kissing-loop reporter” value falls from 424 nM to 122 nM (3.5-fold).

“UCACAGUCCAAAGGAUAUUGAGUGCGCGUGCGAUUUAAGCUGAAGCCGUAGCUAGUGAUGUUAGCCCAAGAAGGUUGGUAGCCAG [theeternabot_exclusion_KL_FMN_B_16]” and “UCGAAGGAUGGAAGGAGCGCUCGUCAGUCCUGCGAGUGAUGUUCGUGGGUAAAUAUUCGCGAGCAGGUAGGUCGCCAUCUUGAGA [Laatla]” are within 1.5-fold of each other in “apparent KD of K4 kissing-loop reporter” value: 128 nM for the first, 96.7 nM for the second.

For “GGUAGCAUGGCGGCCGCCACUCAUGUAGAUACCUACAUAGUAAGCAGUGAUGUUGCUUUGUGGUUGAGGACCGGGCCAUGCUACC”, the “apparent KD of K4 kissing-loop reporter” value was 140 nM.
